According to article PMC5886804 (Nature, 2018):
pEC50: −log10 of the molar value.

Columns and labels:
[1] = molecular target: Mouse TPC1 (two-pore channel 1) (mouse) (UniProt Q9EQJ0); experiment: cryo-EM structure
[2] = molecular target: MmTPC1 Leu11Ala/Ile12Ala (plasma membrane-targeting, considered as the wild type channel) (Mus musculus, UniProt Q9EQJ0, I12A/L11A/R540Q); experiment: inside-out patch clamp, HEK293 cells; format: cell-based

Compound	stoichiometry N [1]	pEC50 [2]
Mouse TPC1 (two-pore channel 1) (from UniProt Q9EQJ0-1 1-817) (natural protein)	2	–
CCCCCCCC(=O)OC[C@H](COP(=O)(O)O[C@@H]1[C@H](O)[C@H](OP(=O)(O)O)[C@@H](O)[C@H](OP(=O)(O)O)[C@H]1O)OC(=O)CCCCCCC [PtdIns(3,5)P2]	–	~6.84
